Experimental data reported in patent publication US8026342B2, “Compositions and methods for binding sphingosine-1-phosphate” (Lpath, Inc., priority 2006, dated 2011).

Key:
[1] = tested on: RPMI 8226 tumor; test: RPMI 8226 human myeloma tumor xenograft; assay type: in vivo, CB17 SCID mice
Protocol: Nude mice (CB17 SCID, aged 4-5 weeks, weight 18-22 gm, female mice obtained from Harlan) were injected sc with RPMI 8226 cells harvested from tissue culture (˜1×10^7 cells/mouse). When tumors grew to approximately 100 mm^3 in size, animals were pair-matched by tumor size into treatment and control groups (10 mice per group). Initial dosing began Day 1 following pair-matching. Animals in all groups were dosed by weight (0.01 ml per gram; 10 ml/kg). […] Bortezomib was administered by intravenous injection via tail vein once every three days for six treatments (Q3D×6).
Individual and group mean tumor volumes±SEM are recorded twice weekly until study completion beginning Day 1. Final mean tumor volume±SEM for each group are reported at study completion; animals experiencing partial or complete tumor regressions or animals experiencing technical or drug-related deaths are censored from these calculations.

[2] = tested on: fibroblasts (Swiss 3T3, murine cardiac, WI-38); test: S1P-stimulated fibroblast proliferation, migration, collagen expression and myofibroblast differentiation; assay type: cell-based; settings: 1 μg/mL antibody
Protocol: See Example 7, below, for experimental details. […] In these experiments, fibroblasts were serum-starved and then treated with 0, 0.1, 0.5, or 1 μM S1P+/−1 μg/mL SPHINGOMAB for 12-24 hr. […] SPHINGOMAB neutralized each of these S1P effects. SPHINGOMAB reduced perivascular fibrosis in vivo in a murine model of a permanent myocardial infarction (E).
S1P makes profound contributions to wound healing by activating fibroblast migration, proliferation and collagen production; SPHINGOMAB neutralizes these effects. Several studies using multiple types of fibroblasts confirm S1P's ability to promote wound healing: 1) S1P increased Swiss-3T3 fibroblast proliferation as measured by ^3H-thymidine incorporation using standard methods (FIG. 7A); 2) S1P promoted the migration of cardiac fibroblasts in a standard scratch wound healing assay. […] In each of these assays, SPHINGOMAB neutralized S1P's. It is anticipated that ocular fibroblasts would respond similarly to S1P and SPHINGOMAB.

[3] = Competitive ELISA for specificity: lipid competitors against anti-S1P mAb binding to coated S1P; settings: for recognition of ceramide-1-phosphate (C1P): competitor C1P; for cross-reactivity to lysophosphatidic acid (LPA): competitor LPA
Protocol: As described in Example 1, below, bound antibody was detected by a second antibody, specific for the mouse or human IgG, conjugated with HRP. Chromogenic reactions were measured and reported as optical density (OD). The concentration of lipids used for the competition is indicated on the X-axis.
For cross reactivity, a competitive ELISA was performed as described above, except for the following alterations. The primary incubation consisted of the competitor (S1P, SPH, LPA, etc.) and a biotin-conjugated anti-S1P mAb. Biotinylation of the purified monoclonal antibody was performed using the EZ-Link Sulfo-NHS-Biotinylation kit (Pierce). […] The competitor was prepared as follows: lipid stocks were sonicated and dried under argon before reconstitution in DPBS/BSA [1 mg/ml fatty acid free BSA (Calbiochem) in DPBS (Invitrogen 14040-133)]. Purified anti-S1P mAb was diluted as necessary in PBS/0.5% Triton X-100. Competitor and antibody solutions were mixed together so to generate 3 parts competitor to 1 part antibody. A HRP-conjugated streptavidin secondary antibody (Jackson Immunoresearch) was used to generate signal.
i. Specificity. The humanized variants were tested for specificity in a competitive ELISA assay (FIG. 1) against S1P and several other biolipids.

[4] = BIAcore binding of murine anti-S1P mAb to S1P immobilized on chip; settings: read-out: affinity (Kd) for S1P
Protocol: Binding kinetics: The binding kinetics of S1P to its receptor or other moieties has, traditionally, been problematic because of the nature of lipids. Many problems have been associated with the insolubility of lipids. For BIAcore measurements, these problems were overcome by directly immobilizing S1P to a BIAcore chip. Antibody was then flowed over the surface of the chip and alterations in […] were measured to determine the binding characteristics of the antibody to S1P. To circumvent the bivalent binding nature of antibodies, S1P was coated on the chip at low densities. Additionally, the chip was coated with various densities of S1P (7, 20, and 1000 RU) and antibody binding data was globally fit to a 1:1 interaction model.

[5] = tested on: CNV lesions; test: Laser-induced rupture of Bruch's membrane, murine CNV model (Example 4); assay type: in vivo, C57BL6/J mice; settings: 0.5 μg
Protocol: Female C57BL6/J mice were subjected to laser-induced rupture of Bruch's membrane and administered either 0.5 μg of Sphingomab or an isotype-matched non-specific (NS) antibody diluted in 2 μl of physiological saline. Mice were sacrificed 14 and 28 days after laser rupture.
To induce CNV lesions, the pupils were dilated with ophthalmic tropicamide (0.5%) and phenylephrine (2.5%). A coverslip was placed on the eye. An Oculight GL 532 nm (Iridex Corporation, Mountain View, Calif.) coupled to a slit lamp set to deliver a 100 msec pulse at 150 mW with a 50 μm spot size was used to rupture Bruch's membrane in three quadrants of the right eye located approximately 50 μm from the optic disc at relative 9, 12 and 3 o'clock positions. The left eye served as an uninjured control in all cases. Any lesion not associated with a vapor bubble or lesions that became confluent were excluded from analysis.
To measure CNV lesion size, choroidal flatmounts of the sclera-choroid-RPE complex were prepared and stained for vasculature (R. communis agglutinin I; red) and pericytes (CD 140b; green). […]
To assess collagen deposition, the sclera-choroid-RPE complex was stained with Masson's Trichrome. […] Approximately 30 sections per lesion were evaluated. Quantitation of the volume of collagen deposition was calculated in the same manner as described for CNV lesion volume.

[6] = Thermochallenge stability of antibody variants (TM); assay type: physicochemical
Protocol: iii. Stability. The humanized variants were tested for stability after challenge at high temperature. The approximate midpoints of the thermal unfolding transitions (TM) were determined for every humanized variant by subjecting the supernatants to temperatures ranging from 60 to 74° C. […] The binding properties of each variant were determined before and after thermochallenge.

[7] = LT1009 50 mg/kg IP Q3D to end, Bortezomib iv Q3D×6

With “LT1009: humanized anti-S1P IgG1/kappa mAb with Cys to Ala in HCDR2, light chain with 5 backmutations; SEQ ID NO: 31/32” the “% Reduction compared to Vehicle-Treated Mice” value ([1]; LT1009 25 mg/kg IP Q3D to end) was 11%, the “Final Tumor Weights” value ([1]; LT1009 25 mg/kg IP Q3D to end) was 1860 mg and the “% Reduction compared to Vehicle-Treated Mice” value [1, 7] was 5%. For the same molecule, the “Final Tumor Weights” value [1, 7] was 1978 mg.

B1: LT1002: murine anti-S1P monoclonal antibody, IgG1 kappa, from hybridoma clone 306D326.26 (antibody, listed as Mus sp., V domains shown)
VH: QAHLQQSDAELVKPGASVKISCKVSGFIFIDHTIHWMKQRPEQGLEWIGCISPRHDITKYNEMFRGKATLTADKSSTTAYIQVNSLTFEDSAVYFCARGGFYGSTIWFDFWGQGTTLTVS
VL: ETTVTQSPASLSMAIGEKVTIRCITTTDIDDDMNWFQQKPGEPPNLLISEGNILRPGVPSRFSSSGYGTDFLFTIENMLSEDVADYYCLQSDNLPFTFGSGTKLEIK
In the case of B1, the “effect on S1P-stimulated fibroblast proliferation, migration, collagen expression, myofibroblast differentiation” value [2] is reported as “neutralized”, the “Specificity (ELISA)” value [3] is reported as “High” and the “recognition of ceramide-1-phosphate (C1P)” value [3] is reported as “no antibody binding was observed”. The “recognition of ceramide-1-phosphate (C1P)” value ([3]; listed as SPHINGOMAB) was “did not recognize”, the “cross-reactivity with dihydrosphingosine-1-phosphate (DH-S1P)” value ([3]; competitor DH-S1P) was “did cross react” and the “recognition of dihydrosphingosine (DH-SPH)” value ([3]; competitor DH-SPH) was “did not recognize”. For the same molecule, the “cross-reactivity to lysophosphatidic acid (LPA)” value [3] was “no binding”, the “cross-reactivity to lysophosphatidic acid (LPA)” value ([3]; listed as SPHINGOMAB) was “no cross-reactivity” and the “recognition of phosphatidyl ethanolamine (PE)” value ([3]; competitor PE) was “did not recognize”. The “recognition of phosphatidyl serine (PS)” value ([3]; competitor PS) was “did not recognize”, the “recognition of sphingomyelin (SM)” value ([3]; competitor SM) was “did not recognize” and the “cross-reactivity with sphingosylphosphoryl choline (SPC)” value ([3]; competitor SPC) was “somewhat reduced”. The “cross-reactivity to sphingosine (SPH)” value ([3]; competitor SPH) was “no cross-reactivity”, the Kd [4] was less than 0.1 nM and the choroidal neovascularization ([5]; 14 and 28 days after laser rupture) was “dramatically attenuates”. The “fibrosis associated with CNV lesion formation” value ([5]; 28 days after laser rupture) was “significantly reduces” and the “TM (approximate midpoint of thermal unfolding transition)” value [6] was 65 °C.
